Among the data in a protein production outcome set (Wang et al. 2014) are protein production values, retold here.

The nature of the series: label from the status in PepcDB records.
Regarding “MQIESFKSLLPKYKCIFFDAFGVLKTYNGLLPGIENTFDYLKAQGQDYYIVTNDASRSPEQLADSYHKLGLFSITADKIISSGMITKEYIDLKVDGGIVAYLGTANSANYLVSDGIKMLPVSAIDDSNIGEVNALVLLDDEGFNWFHDLNKTVNLLRKRTIPAIVANTDNTYPLTKTDVAIAIGGVATMIESILGRRFIRFGKPDSQMFMFAYDMLRQKMEISKREILMVGDTLHTDILGGNKFGLDTALVLTGNTRIDDAETKIKSTGIVPTHICESAVIEL”, the protein production result is given as “not failed”.

Take “MQIKEIFMIRCISCLSVVLLHIISMVLMLQAEALADISHTVDSFRTLLMFSTPAFIFISEFLLARSYPDGVPDGFLKKRGKVIFVPFLFIAAIDALLMTSAMGGEVTFLAFVQKYLANVFLGNFIGYFILVIFQFYMLHMMFHEYLKKASPKWVLSISFVVTAAYLGYFSAASPAPASEEGGAFPFFWVPFAGWLFYFCLAYYCGKEYKRFLALLNQYRWVVYGAAIASGALVVTVSYVGEIGMISSKRPDIMLYSTSMIFLCFHLFSKMKHVPKIMMFISNYSFSIYLLHAYFMIIGYVLLLNMPEIPAVPAVLLLFAVCTAGPIMTSWALNKFKYGYLFVGKIYQPKQKKVTVEVRDHAG”: the protein production entry was “failed”.

“MQILQTFVQSIQGVMTIIVMIAVGYLLARWGWFNESATKLIARLVTQIALPAYMIATITKQFTAHKLLSTLPGLRFPVLNMAILFGISFGVMRALNIKKSHRGLFASMFLNSNTVFIGLPVNQALFGNSALPYVLVYYMANTTIFWTLGVYLIQRDGTGTAKFDLKQTLTKIFSPPLLGFMIGVLLVLGNIHVPKFLMDDFSYIGGLTIPLSMIFIGISMANAGLSSMRFDRDSLGILLGRFILAPVLMTLMLIPMSIPLEMKQVFILQSAMPVMTNAPVVSKLYGADADYAAVMVTETTLLSLIVIPILMVIVQANFIR”: the protein production result is listed as “failed”.

For “MQIPIYSKLKTKLESKGIDNISSGQIAWFVCSLILALVTYIILTFHYIYISYGKYDKNLFLLIFDRNAIELFVIVYSCIMFNLLYIYNAIPLVLSAVFIFLAFYFSSLSLFIVGCCGIGVFFLISIFKRKFMFSVLLFALGYTCTLFFFYGLATY”, the protein production entry is listed as “failed”.

As for “MQIYLSTLTELDYDKSLNSIEESFDDNPETSWQARAKVKHLRKSPCYNFELEVIAKNENNDVVGHVLLIEVEINSDDKTYYGLAIASLSVHPELRGQKLGRGLVQAVEERAKAQEYSTVVVDHCFDYFEKLGYQNAAEHDIKLESGDAPLLVKYLWDNLTDAPHGIVKFPEHFY”, the protein production entry is “failed”.

For “MQKFIIHKGIACPLEYANIDTDQIIPKQFLLAVSKQGFGKHLFHDLRYLDDKESVLNMDFNLNKKEYQNSSILVSFENFGSGSSREHAPWALVDYGIRAIIAPSFADIFKNNALGNGLLTIELAKDEVLEIVDELKKSQDKNIEISLLEKRVFFKDKIFSFDLDDFHRICLLEGLDNIALTLKHEAQIKAYEKNSKSFLV”, the protein production result is “not failed”.

On to “MQKGFLLGLFAYATFSMGDATIKSLGSQISVFEIGFFSILFSGIFIFFSKPREERWREFWRMSRPFAVHGRAISGLFAGIFGIYAFTTIPLAEAYALIFLSPLFVTVLSAVVLKENIGPWRWAAVLAGIVGVILVVRPGFKTLELGHIAAIGVAFLAAMTIVLLRSLAGKEKRTSIMGVLLIYGLTFNGIASIPDFVMPNLHQLLAFAFIGLCTATGQITLLVATRIAPASQIAPSHYSQILWAVAIGMTFFHEYPDAIAALGLAVIAASGLLTMIREKVRLGTVRWNPFFRNRL”, for which the protein production result is “failed”.

Take “MQKKSQTAQSYHPMIKEFPEFYGPLTCPGQFLALLILEFGLNFAEIQKLKWENFNWNFKYLTIEKAGIKRVLPIREKFAIRVKAINNADELFAKSRQFLYTELKKFTNYSSKEIREQYILHQVKAGKSIYELATLLGLTTITTLEKYYRLEHHHHHH”: the protein production entry is listed as “failed”.

“MQKLFLTFFYSGSVKKASGTFGTIAALIPAFFILKYLGINTLFLLSILIFVASIRVIDDYEKKTGIHDDKHIVIDEVAGVFLACAIAASVENSIVNFILAFVLFRLFDITKPSIIGKIDKKVKGGLGVMLDDMLAGLFAGLLSAVIYGFLLKFNLVFWDINLKDLF”: the protein production entry is given as “failed”.

In the case of “MQKRVVILLLDSFGIGASEDAKDFGDLGANTLGNIAKACFNNLADSNDRSGALKLPYLESLGLGLSALKAANELPLGFQSQPNLIGAYAYAQELSSAKDTISGHWEMMG”, the protein production entry is recorded as “failed”.

For the sequence “MQKSDALALDGSAALAEPVPATEIARGIAVLAAPTSLVAFLQAGAQLIETWLAARQGTASLAGWAVVLPFALLLQQMSTGAMGGGVVSAIARALGGGKREEASSLVLHALIIAVTAGLIFAIVLAGFPRSVFGAVAGATAAEAAASYAIWLFGAGAVPAWLANTLASVLRGGGRHALAARVLGGMWVVFPVLSWWLAERVGMGLAGIGAALAAVSWGAALVMAYVVFRGGAGFVPSLRIRPSKALFYRILSIGLVACALASVANLTTILVTAQLRHYGTTTVAAYGISARLEFLMIPLAFGVGSALTALVGRAVGAGDWHTARRTAWVGALLALLIAGTVGAAVGLAPNQFAGLFTQDPNVGAIAARALSWVGPAFGGFGLGMALYFASMGAGRMRWPIAAGLCRIALAAGGGWLLANVAGMGLDGHFLGVALGITSYGLVTAIGVRKGEWSPRH”, the protein production entry is “failed”.

“MQLSAPPYEERLTAPRTWWLMCFLVGVSMALILLPFGTLPLLGGLVGGTAVAAVVASSYGSIRIRVVGDSLIAGEAKIPVAALGEAEIMDQEEARAWRTYKANPRAFMLLRSYIPTALRVEVTDPQDPTPYLYLSTREPERLAAALKAARTEA”: the protein production result was “failed”.

As to “MQLSIEEVKKLDSNSYQIIDIRSEEEVAHGAIKGALNIQAEEIESDERVPHDKKLVIVCSRGKTSVDVAEYLTEKGFDAASLKGGYISWLLDAMKEDEVAERDIKADVEQSIRKKFKKSIWRKFTKAINTYELVKPGDKIAVCISGGKDSMLMAKLFQELKHHNKFDFDVKFLVMDPGYNEANRHVIEENCRNLGIPATIFESDIFDAVYDIEKSPCYLCARMRRGHLYAFAKELGCNKIALGHHYDDVIETILMGMLYGAQVQTMMPKLHSTNFEGMELIRPLYLVREDDIKAWRDYNGLHFIQCACKFTDTCTTCNNEENRSKRVEIKQLIANLKKVNPFVEANIFKSVENVNLATVVAYKKDGIKHSFLDHYDE”, the protein production result is reported as “failed”.

In the case of “MQMAGFGLIAKLRNKIRVKPNNKIQIGKNTRIRYCDIYVNGNNNQLIIHNGANLKGVSIELNGNNCLLEIGENCVIGENCFLSCRESGTKLVIGKECMFSRNVKLMTSDGHDILRDGKRINPAKSIYIGSHVWLADNVTILKGVDIGSGSIIGINSTVTKSIGQYCIAAGNPARKIKDNISWNTTLSY”, the protein production result was “failed”.

As for “MQMMEQFYPKVSIVIPVYNGSDYMREAIDSALGQTYGNIEVIVVNDGSSDGGLTHEIALSYGGNIRYFAKENGGVASALNFAIRMMDGEYFSWLSHDDIYYPNKIETQIGYLAEHDRNAILYSDFELIDCLSKVIKPVNAGEIPPEQFLYNLITIGHLNGCTLLVPKRCFEETGFFDESLRSTQDYALWFTFAQKYRFEQIRKVLVKYRTHSNQGSYVIPTHSQEVNDLHIWFLEEASERGLLPIPDEGASRFFLEVAGIYKKRGIYRAADYSCSMALRHMRDEGGLALLRELPRVAYLKYYFRKKQFKSYLRELRRSTVRRSLLEHHHHHH”, the protein production entry is on record as “not failed”.

Consider “MQNELQKYDDTINIAFFGLDRRQKTDISRSDSIMILTMDPTHKKLKLSSIMRDTYVNVDGHGMTKITHAYAYGGPQLAIKTINENFNLNIKDYVTVDFYGLEKIIDKLNGVEVDVQPDEVNYLNSYIDEVSKYEKVTPNHVSSAGKQLLDGRQAVAYSRIRYTAGGDFQRTERQRTVLMAVFNKMKAQGKSNMLSMMDELLPYAETDLGSLDIAKYGAKFLSSNIDSIDQERFPVDGYCSGITVDNVWYLKTDLGVTSDQMKKYIFEDVKPTPKASLVNIPAKLEHHHHHH”, for which the protein production result was “not failed”.

In the case of “MQNTIIQKAVNKDLNSILEITKDALNAMKTMNFHQWDENYPNEIVFQEDIQAQELYVFKENDEILGFICINEKFKPEFYKQVIFNKNYDDKAFYLHRLAVKQNAKGKGVAQKLLNFCENFALENHKASLRADTHSKNFPMNSLFKKLDFNFCGNFDIPNYQ”, the protein production result is “failed”.

Turning to “MQNTIIQKAVNKDLNSILEITKDALNAMKTMNFHQWDENYPNEIVFQEDIQAQELYVFKENDEILGFICINEKFKPEFYKQVIFNKNYDDKAFYLHRLAVKQNAKGKGVAQKLLNFCENFALENHKASLRADTHSKNFPMNSLFKKLDFNFCGNFDIPNYQDPFLAYEKILNQKAF”, the protein production result is reported as “not failed”.

On to “MQNTKLYSLTLIALGAAIIAVLSPLSIPIGIVPVTLQTLAVGLVATVLKARETFFAILLYLLLGFIGIPVFTGGTSGIAVLFGPTGGFLIAFLIMGTLISFGLHQINYKTIPAFIINIVGHLLMLVIGTLWLKFFTNVDWSLALKLGFTPFVIVEIIKAVLVTIFGLALIRALSHTNKYFTN”, for which the protein production entry is reported as “failed”.

Take “MQPQNIFDNEVFFQGYKKLRENPNSANILEEKPAIFSLLPELTGKKVLDLGCGYGENCNMFSKMGANKVVGIDVSSKMLAIANNDNSGDNIFYENMCMEDIFCINEKFDVVVSSLAVHYINDFNKLVCNVNSLLKDNGIFVFSQEHPLTTAPKNGARWFKNVDGRIAHYVLTDYATSGERTVSWIVDGITKYHRTFSDIVNALIDAGFIIEKMLEPVPTKEIIERDPSSAKDLHKPNFLVTRARKK”: the protein production entry is reported as “failed”.

As to “MQPTTRLSFSQRHPFIFGFLLIMVAVALFTGATATFRHLTDAGSFGGPRIGIVRIEGMIGDVRKTLEWMRKLAEDRTVRGVLVRVDSPGGAVAPSQELHDAVKRLAADKPVVVSMGSLAASGGLMVSTGATRIVANPATITGSIGVKMEMPNVQGLMDKIGVARQTLVSGDLKDAGSPFRAMSEAERAYFQSIIMEMYGQFVSMIAEDRNIPVEKVRSFADGRILTGSQALELGLVDKLGSEAAAMDVLLALVDLKGEKPVFIEPPKERSWVREVLESALGIAPPQNMGQPAFLYY”, the protein production result is “failed”.

As for “MQQALAFVARHGRLGLMVGLGAGLALPGLAAVMRPWIPQLVALLLFLTAFRIGPVDAAGSLADLTRTARRVLVLQLALPILFLLGLRLLGLPVTPLALVLALVLAAPSVTGSANFTILLAQDPAPALRLLILGTALLPLTAIPVFWLLPAFGDPAEVFGAALRLLGVILLAAGCGFALRHWGARQLSDLNRRAMDGLTVIALAVIVIALMSAVRPAMTERPAELAFWLLAAFAINLGGQTLCYLTLRATGGADPVPTSIVAGNRNFALFFVALPSEVTEPLLIFLGCYQFPMYLTPTLMRRLYDPV”, the protein production entry was “failed”.
